In the supplement of paper PMC10567573:

B1: TOR1AIP2 (parent)
chain: DGAGRTWQDSDTVKLLVDLELSYG
B2: ZBTB22 (parent)
chain: HTGLKPYECGVCAKKFMWRDSFMR

Variants of: B1
Test: protein stability index of a GFP-peptide fusion (GPS, HEK-293T) (PSI 1-6); higher = more stable
Settings: c terminus: a fixed tail appended
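Also: lentivirally expressed fusions sorted by FACS into six bins by GFP to DsRed ratio, PSI derived from sequencing read proportions per bin multiplied by bin number.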

Protein stability index of substitutions, site by site:
A3: V 1.41 | Y 2.5
G4: A 1.8 | C 2.02 | E 2.58 | F 2.26 | H 1.62 | I 2.38 | K 2.63 | L 2.34 | M 1.35 | N 2.05 | P 2.12 | Q 1.43 | R 1.93 | S 2.01 | T 2.05 | V 2.22 | Y 3.85
R5: A 1.95 | C 1.13 | D 2.39 | E 2.67 | F 1.74 | G 1.64 | H 3.25 | I 1.85 | K 2.1 | L 2.27 | N 2.74 | P 1.84 | Q 2.05 | T 1.46 | V 3.3 | W 2.76 | Y 2.33
T6: A 1.74 | C 1.92 | D 2.37 | E 2.62 | I 2.17 | K 3.73 | Q 2.03 | S 2.96 | W 1.1 | Y 1.58
W7: A 3.35 | C 2.79 | D 4.15 | E 4.3 | F 2.91 | G 3.22 | H 2.83 | I 2.5 | L 2.03 | M 2.36 | N 4.06 | P 2.45 | R 3.68 | V 2.44
Q8: D 1.24 | E 2.26 | G 3.19 | K 1.38 | M 2.09 | N 2.26 | P 2.49 | R 2.88 | S 3.33 | T 4.32 | Y 1.56
D9: E 1.5 | H 1.09 | N 2.92 | R 3.52 | V 2.09
S10: A 1.92 | C 2.18 | D 3.02 | E 3.06 | G 1.01 | H 1.04 | N 1.6 | P 2.36 | Q 1.9 | R 2.08 | T 1.99 | V 2.92
D11: A 2.27 | E 2.08 | F 2.77 | G 1.18 | I 3.92 | K 1.53 | N 2.14 | P 1.66 | Q 3.09 | R 1.13 | S 1.52
T12: D 3.56 | E 3.43 | F 1.4 | H 1.35 | I 1.54 | K 2.6 | M 1.58 | N 2.79 | Q 1.6 | R 2.59 | S 2.28 | V 2.03 | W 1.87 | Y 1.49
V13: C 2.04 | D 5.09 | E 3.95 | F 1.37 | I 1.06 | K 2.18 | L 2.07 | M 2.77 | N 3.08 | P 3.82 | R 2.7 | T 2.44
K14: A 1.96 | D 1.91 | E 1.88 | G 1.91 | H 1.42 | N 1.74 | P 3.03 | Q 1.63 | R 1.83 | S 1.61 | T 1.61 | W 1.5
L15: A 3.7 | E 4.54 | F 2.18 | G 3.75 | H 3.54 | I 1.75 | K 4.4 | N 4.18 | P 3.82 | Q 4.28 | R 3.9 | S 4.04 | T 3.67 | V 2.53 | W 2.07 | Y 1.84
L16: C 1.99 | D 3.52 | E 3.69 | G 3.57 | I 2.57 | K 4.25 | M 2.02 | N 3.94 | P 3.38 | Q 3.31 | R 2.98 | S 3.36 | T 3.66 | V 1.42 | W 2.88 | Y 1.82
V17: C 1.92 | D 4.56 | E 4.81 | F 1.78 | G 3.17 | I 2.54 | L 2.34 | M 1.85 | N 4.01 | Q 3.97 | R 3.11 | S 3.21 | W 1.58 | Y 2.39
D18: A 4 | C 2.22 | H 1.08 | I 4.08 | K 1.98 | M 1.36 | N 1.8 | P 3.1 | S 1.52
L19: A 3.97 | C 2.8 | D 4.31 | E 4.55 | F 2.43 | G 4.45 | I 2.03 | K 4.38 | M 3 | N 3.75 | S 4 | T 4.11 | V 2.27 | Y 3.19
E20: D 1.56 | F 2.34 | G 2.13 | H 1.26 | K 1.93 | L 2.12 | M 1.68 | N 2.08 | P 3.09 | Q 2.23 | R 1.61 | S 1.75 | T 1.48 | W 2.81 | Y 1.59
L21: A 2.01 | C 1.75 | D 2 | E 1.62 | F 1.6 | H 2.84 | K 2.02 | M 2.65 | N 2.07 | P 3.99 | Q 2.35 | T 1.44 | W 1.72 | Y 1.62
S22: A 3.17 | C 1.85 | D 2.51 | E 2.33 | F 1.79 | G 2.49 | H 1.7 | I 1.55 | K 3.51 | L 1.89 | M 2.13 | N 3.21 | P 3.28 | Q 2.61 | R 1.84 | T 1.56 | W 1.47 | Y 2.35
Y23: A 1.1 | D 1.91 | E 1.85 | F 1.03 | G 2.6 | H 1.77 | I 1.36 | K 3.9 | M 5.21 | N 1.45 | R 2.15 | S 1.56 | T 2.56
G24: A 2.47 | D 1.8 | E 1.71 | I 3.44 | K 2.88 | N 1.26 | P 2.77 | Q 2.53 | S 2.51 | T 1.73

Variants of: B2
Test: as above
Settings: c terminus: a fixed tail appended

Protein stability index, by site and new letter:
H1: A 3.04 | C 1.3 | D 1.45 | F 1.76 | I 2.85 | Q 2.71 | S 1.92 | T 2.24
T2: C 3.8 | D 3.09 | E 2.67 | F 4.25 | G 1.74 | K 2.14 | M 1.17 | N 2.28 | P 2.72 | R 2.38 | Y 2.79
G3: A 2.15 | C 2.47 | D 1.36 | E 3.34 | I 2.91 | K 2.3 | L 1.69 | N 3.32 | P 4.19 | Q 1.52 | S 2.62 | T 2.23 | V 3.07
L4: A 1.62 | C 1.64 | D 2.32 | E 1.86 | F 2.27 | G 1.92 | H 2.07 | I 2.75 | M 1.93 | N 1.37 | S 4.46 | V 3.58 | Y 3.37
K5: C 2.43 | D 3.82 | F 2.66 | I 2.05 | L 1.92 | M 2.73 | N 1.56 | P 1.62 | R 2.38 | S 1.96
P6: A 3.44 | D 1.82 | E 2.97
